For the series, the target named is UCM12.
UCM12, sequence (chain, as listed by the source, chain 1 of 3, other chains not shown): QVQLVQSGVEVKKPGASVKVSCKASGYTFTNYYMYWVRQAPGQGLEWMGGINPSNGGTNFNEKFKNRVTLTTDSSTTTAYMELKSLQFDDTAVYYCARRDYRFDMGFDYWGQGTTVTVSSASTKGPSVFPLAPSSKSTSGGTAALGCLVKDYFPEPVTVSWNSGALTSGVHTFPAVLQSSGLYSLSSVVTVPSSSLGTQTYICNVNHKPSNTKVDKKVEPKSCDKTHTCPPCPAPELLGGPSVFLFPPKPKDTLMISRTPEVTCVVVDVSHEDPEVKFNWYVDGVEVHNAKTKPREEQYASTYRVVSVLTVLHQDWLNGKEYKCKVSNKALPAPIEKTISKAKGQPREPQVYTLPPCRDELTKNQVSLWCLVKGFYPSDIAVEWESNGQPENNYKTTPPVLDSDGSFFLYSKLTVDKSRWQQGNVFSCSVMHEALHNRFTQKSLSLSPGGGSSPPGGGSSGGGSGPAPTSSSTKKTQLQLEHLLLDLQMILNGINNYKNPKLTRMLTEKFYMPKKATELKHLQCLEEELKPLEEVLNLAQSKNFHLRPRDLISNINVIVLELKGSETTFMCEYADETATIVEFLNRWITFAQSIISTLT
UCM12, sequence (chain, as listed by the source, chain 2 of 3, other chains not shown): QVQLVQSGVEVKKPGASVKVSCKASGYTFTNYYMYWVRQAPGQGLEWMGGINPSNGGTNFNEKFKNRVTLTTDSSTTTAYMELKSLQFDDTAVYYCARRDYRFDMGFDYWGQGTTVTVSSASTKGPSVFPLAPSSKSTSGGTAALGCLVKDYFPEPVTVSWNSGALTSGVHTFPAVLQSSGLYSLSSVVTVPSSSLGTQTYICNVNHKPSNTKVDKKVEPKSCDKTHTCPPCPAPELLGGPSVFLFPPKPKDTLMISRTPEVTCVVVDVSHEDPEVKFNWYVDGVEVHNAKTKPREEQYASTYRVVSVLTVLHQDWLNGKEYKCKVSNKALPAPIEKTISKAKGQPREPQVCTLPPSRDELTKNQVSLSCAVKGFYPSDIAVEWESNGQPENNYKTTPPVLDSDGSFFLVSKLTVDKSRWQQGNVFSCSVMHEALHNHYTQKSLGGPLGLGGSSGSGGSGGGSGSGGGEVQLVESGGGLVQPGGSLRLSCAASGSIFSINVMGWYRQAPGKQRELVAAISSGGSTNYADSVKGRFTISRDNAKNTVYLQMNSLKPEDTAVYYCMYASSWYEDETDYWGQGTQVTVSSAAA

B1: Matrix Metalloproteinase 1 (protein)
chain: FVLTEGNPRWEQTHLTYRIENYTPDLPRADVDHAIEKAFQLWSNVTPLTFTKVSEGQADIMISFVRGDHRDNSPFDGPGGNLAHAFQPGPGIGGDAHFDEDERWTNNFREYNLHRVAAHELGHSLGLSHSTDIGALMYPSYTFSGDVQLAQDDIDGIQAIYGRSQNPVQPIGPQTPKACDSKLTFDAITTIRGEVMFFKDRFYMRTNPFYPEVELNFISVFWPQLPNGLEAAYEFADRDEVRFFKGNKYWAVQGQNVLHGYPKDIYSSFGFPRTVKHIDAALSEENTGKTYFFVANKYWRYDEYKRSMDPGYPKMIAHDFPGIGHKVDAVFMKDGFFYFFHGTRQYKFDPKTKRILTLQKANSWFNCRKN
On to B1, for which the kcat/Km – broadly, the turnover number divided by the Michaelis constant – was found to be 230 M⁻¹ s⁻¹.

B2: MMP2 (protein)
chain: YNFFPRKPKWDKNQITYRIIGYTPDLDPETVDDAFARAFQVWSDVTPLRFSRIHDGEADIMINFGRWEHGDGYPFDGKDGLLAHAFAPGTGVGGDSHFDDDELWTLGEGQVVRVKYGNADGEYCKFPFLFNGKEYNSCTDTGRSDGFLWCSTTYNFEKDGKYGFCPHEALFTMGGNAEGQPCKFPFRFQGTSYDSCTTEGRTDGYRWCGTTEDYDRDKKYGFCPETAMSTVGGNSEGAPCVFPFTFLGNKYESCTSAGRSDGKMWCATTANYDDDRKWGFCPDQGYSLFLVAAHEFGHAMGLEHSQDPGALMAPIYTYTKNFRLSQDDIKGIQELYGASPDIDLGTGPTPTLGPVTPEICKQDIVFDGIAQIRGEIFFFKDRFIWRTVTPRDKPMGPLLVATFWPELPEKIDAVYEAPQEEKAVFFAGNEYWIYSASTLERGYPKPLTSLGLPPDVQRVDAAFNWSKNKKTYIFAGDKFWRYNEVKKKMDPGFPKLIADAWNAIPDNLDAVVDLQGGGHSYFFKGAYYLKLENQSLKSVKFGSIKSDWLGC
As for B2, the kcat/Km was found to be 1900 M⁻¹ s⁻¹.

The values are drawn from US20250250314.
